T1: Gnd1 (6PGDH/Gnd1) (Saccharomyces cerevisiae, UniProt P38720)
T1 construct: full length, 489 residues; pET28a-derived vector, E. coli Rosetta (DE3); homodimer; residues 1-476 seen in crystal
T1 sequence (P38720 1-489): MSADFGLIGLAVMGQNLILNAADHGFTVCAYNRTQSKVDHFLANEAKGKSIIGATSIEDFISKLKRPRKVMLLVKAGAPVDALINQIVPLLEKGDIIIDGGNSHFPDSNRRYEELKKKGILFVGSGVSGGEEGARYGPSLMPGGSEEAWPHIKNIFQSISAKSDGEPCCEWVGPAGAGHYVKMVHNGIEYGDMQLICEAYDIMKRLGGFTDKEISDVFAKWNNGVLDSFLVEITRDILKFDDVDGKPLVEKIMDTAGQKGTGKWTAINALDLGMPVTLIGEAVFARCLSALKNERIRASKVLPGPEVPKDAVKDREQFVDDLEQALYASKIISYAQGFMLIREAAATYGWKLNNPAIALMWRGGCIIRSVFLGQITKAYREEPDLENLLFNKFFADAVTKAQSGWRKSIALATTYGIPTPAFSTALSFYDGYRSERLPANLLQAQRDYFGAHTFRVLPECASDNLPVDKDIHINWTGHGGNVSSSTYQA

B1: Gnd1ΔC39 (domain or fragment, S. cerevisiae, UniProt P38720 1-450, looked up)
chain: MSADFGLIGLAVMGQNLILNAADHGFTVCAYNRTQSKVDHFLANEAKGKSIIGATSIEDFISKLKRPRKVMLLVKAGAPVDALINQIVPLLEKGDIIIDGGNSHFPDSNRRYEELKKKGILFVGSGVSGGEEGARYGPSLMPGGSEEAWPHIKNIFQSISAKSDGEPCCEWVGPAGAGHYVKMVHNGIEYGDMQLICEAYDIMKRLGGFTDKEISDVFAKWNNGVLDSFLVEITRDILKFDDVDGKPLVEKIMDTAGQKGTGKWTAINALDLGMPVTLIGEAVFARCLSALKNERIRASKVLPGPEVPKDAVKDREQFVDDLEQALYASKIISYAQGFMLIREAAATYGWKLNNPAIALMWRGGCIIRSVFLGQITKAYREEPDLENLLFNKFFADAVTKAQSGWRKSIALATTYGIPTPAFSTALSFYDGYRSERLPANLLQAQRDYFG
notes: 6-phosphogluconate dehydrogenase Gnd1, S. cerevisiae, ORF YHR183W/GND1, residues 1-450 of 489 (C-terminal 39 residues deleted); Cloned into the pET28a-derived vector and purified as the full-length protein; also called Gnd1 without the C-terminal 39 residues; source: E. coli Rossetta (DE3), purified (Ni2+ chromatography, Superdex 200 gel filtration)
B2: Saccharomyces cerevisiae 6-phosphogluconate dehydrogenase Gnd1 (enzyme, S. cerevisiae, UniProt P38720 1-489, looked up)
chain: T1 sequence (P38720 1-489)
notes: 6-phosphogluconate dehydrogenase Gnd1, S. cerevisiae strain S288C, ORF YHR183W/GND1, 489 residues; residues 1-476 are seen in the crystal structure; The asymmetric unit holds one monomer (final model 1-476 for one monomer); the dimer is described as the biological unit; also called 6PGDH/Gnd1; 6PGDH
B3: Gnd1ΔC35 (domain or fragment, S. cerevisiae, UniProt P38720 1-454, looked up)
chain: MSADFGLIGLAVMGQNLILNAADHGFTVCAYNRTQSKVDHFLANEAKGKSIIGATSIEDFISKLKRPRKVMLLVKAGAPVDALINQIVPLLEKGDIIIDGGNSHFPDSNRRYEELKKKGILFVGSGVSGGEEGARYGPSLMPGGSEEAWPHIKNIFQSISAKSDGEPCCEWVGPAGAGHYVKMVHNGIEYGDMQLICEAYDIMKRLGGFTDKEISDVFAKWNNGVLDSFLVEITRDILKFDDVDGKPLVEKIMDTAGQKGTGKWTAINALDLGMPVTLIGEAVFARCLSALKNERIRASKVLPGPEVPKDAVKDREQFVDDLEQALYASKIISYAQGFMLIREAAATYGWKLNNPAIALMWRGGCIIRSVFLGQITKAYREEPDLENLLFNKFFADAVTKAQSGWRKSIALATTYGIPTPAFSTALSFYDGYRSERLPANLLQAQRDYFGAHTF
notes: 6-phosphogluconate dehydrogenase Gnd1, S. cerevisiae, ORF YHR183W/GND1, residues 1-454 of 489 (C-terminal 35 residues deleted); Cloned into the pET28a-derived vector and purified as the full-length protein; also called Gnd1 without the C-terminal 35 residues; source: E. coli Rossetta (DE3), purified (Ni2+ chromatography, Superdex 200 gel filtration)
B4: Gnd1ΔC53 (domain or fragment, S. cerevisiae, UniProt P38720 1-436, looked up)
chain: MSADFGLIGLAVMGQNLILNAADHGFTVCAYNRTQSKVDHFLANEAKGKSIIGATSIEDFISKLKRPRKVMLLVKAGAPVDALINQIVPLLEKGDIIIDGGNSHFPDSNRRYEELKKKGILFVGSGVSGGEEGARYGPSLMPGGSEEAWPHIKNIFQSISAKSDGEPCCEWVGPAGAGHYVKMVHNGIEYGDMQLICEAYDIMKRLGGFTDKEISDVFAKWNNGVLDSFLVEITRDILKFDDVDGKPLVEKIMDTAGQKGTGKWTAINALDLGMPVTLIGEAVFARCLSALKNERIRASKVLPGPEVPKDAVKDREQFVDDLEQALYASKIISYAQGFMLIREAAATYGWKLNNPAIALMWRGGCIIRSVFLGQITKAYREEPDLENLLFNKFFADAVTKAQSGWRKSIALATTYGIPTPAFSTALSFYDGYRSER
notes: 6-phosphogluconate dehydrogenase Gnd1, S. cerevisiae, ORF YHR183W/GND1, residues 1-436 of 489 (C-terminal 53 residues, the entire C-terminal tail, deleted); Cloned into the pET28a-derived vector and purified as the full-length protein; also called Gnd1 without the C-terminal 53 residues; source: E. coli Rossetta (DE3), purified (Ni2+ chromatography, Superdex 200 gel filtration)

Legend:
Gnd1 (6PGDH/Gnd1) = molecular target: T1, Gnd1 (6PGDH/Gnd1); assay: X-ray crystal structure, […] Å; type: binding; conditions: crystallised from 1.28 M tri-sodium citrate pH 6.5; two citrates per monomer in the 6-phosphogluconate site, contacts from both chains
[1] = molecular target: the molecule itself; assay: SEC; dimer found 'through purification and crystallization'; purification by Ni2+ chromatography and gel filtration on Superdex 200 (20 mM Tris-HCl pH 8.0, 200 mM NaCl, 20 mM β-mercaptoethanol); 'homodimer in solution'
purified protein = substrate: NC(=O)c1ccc[n+]([C@@H]2O[C@H](COP(=O)(O)OP(=O)(O)OC[C@H]3O[C@@H](n4cnc5c(N)ncnc54)[C@H](OP(=O)(O)O)[C@@H]3O)[C@@H](O)[C@H]2O)c1; assay: purified protein; conditions: co-substrate 6-phosphogluconate (0.1-0.5 mM, varied), Gly-Gly 50 mM pH 7.5, MgCl2 10 mM, 28°C, ionic strength 0.03
[2] = molecular target: the molecule itself; assay: crystal structure; hanging-drop vapour diffusion at 15°C, 1.28 M tri-sodium citrate pH 6.5; 2.37 Å, molecular replacement; two citrate molecules bound to each monomer

Row | Molecule | stoichiometry N [1] | also measured
1 | O=C(O)CC(O)(CC(=O)O)C(=O)O [citrate] |  | X-ray crystal structure, 2.37 Å (Gnd1 (6PGDH/Gnd1)): two citrate molecules were bound to the active site of each Gnd1 monomer
2 | B1 | 2 | 
3 | B2 |  | Km (purified protein): 35 ± 6 µM; stoichiometry N [2]: 2
4 | B3 | 2 | 
5 | B4 | 2 | 
